This note sets out measurements from the supplement of paper PMC5998384.

Data set [1] deals with HeLa Kyoto. Put plainly: thermal stability score vs G1/S (z-score of summed log2 fold changes over temperatures); higher = more thermally stable than in G1/S.
Data set [2] has as its system HeLa Kyoto. Put plainly: melting temperature (median over replicates), in situ; higher = more thermally stable.
In data set [3] the test system is HeLa Kyoto. Put plainly: solubility in G1/S (NP-40 vs SDS abundance) (log2 ratio); higher = more soluble. Conditions: cell cycle stage: G1/S.
For data set [4], the system named is HeLa Kyoto. In words: solubility change mitosis vs G1/S (difference of NP-40 vs SDS log2 ratios) (log2 ratio difference); higher = more soluble in mitosis.
[5] abbreviates: cell cycle stage: early G1 (4.5 h after nocodazole release).
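Throughout, for melting temperature (median over replicates), in situ: HeLa Kyoto cells synchronized by double thymidine or nocodazole block, proteins quantified by TMT10plex mass spectrometry, three independent biological replicates.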
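Throughout, for solubility change mitosis vs G1/S (difference of NP-40 vs SDS log2 ratios): synchronized HeLa Kyoto cells (double thymidine block for G1/S, nocodazole release for mitosis), protein amounts in NP-40 versus SDS lysates quantified by mass spectrometry, three biological replicates.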
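Throughout, for solubility in G1/S (NP-40 vs SDS abundance): HeLa Kyoto cells arrested at G1/S by double thymidine block, proteins quantified by TMT10plex mass spectrometry in mild NP-40 versus SDS extracts, three biological replicates.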
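Throughout, for thermal stability score vs G1/S (z-score of summed log2 fold changes over temperatures): synchronized HeLa Kyoto cells, proteins quantified by TMT10plex mass spectrometry, three biological replicates, mitosis taken 0.5 h after nocodazole release, G1/S directly after double thymidine block.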

“MSGGASATGPRRGPPGLEDTTSKKKQKDRANQESKDGDPRKETGSRYVAQAGLEPLASGDPSASASHAAGITGSRHRTRLFFPSSSGSASTPQEEQTKEGACEDPHDLLATPTPELLLDWRQSAEEVIVKLRVGVGPLQLEDVDAAFTDTDCVVRFAGGQQWGGVFYAEIKSSCAKVQTRKGSLLHLTLPKKVPMLTWPSLLVEADEQLCIPPLNSQTCLLGSEENLAPLAGEKAVPPGNDPVSPAMVRSRNPGKDDCAKEEMAVAADAATLVDEPESMVNLAFVKNDSYEKGPDSVVVHVYVKEICRDTSRVLFREQDFTLIFQTRDGNFLRLHPGCGPHTTFRWQVKLRNLIEPEQCTFCFTASRIDICLRKRQSQRWGGLEAPAARVGGAKVAVPTGPTPLDSTPPGGAPHPLTGQEEARAVEKDKSKARSEDTGLDSVATRTPMEHVTPKPETHLASPKPTCMVPPMPHSPVSGDSVEEEEEEEKKVCLPGFTGLVNLGNTCFMNSVIQSLSNTRELRDFFHDRSFEAEINYNNPLGTGGRLAIGFAVLLRALWKGTHHAFQPSKLKAIVASKASQFTGYAQHDAQEFMAFLLDGLHEDLNRIQNKPYTETVDSDGRPDEVVAEEAWQRHKMRNDSFIVDLFQGQYKSKLVCPVCAKVSITFDPFLYLPVPLPQKQKVLPVFYFAREPHSKPIKFLVSVSKENSTASEVLDSLSQSVHVKPENLRLAEVIKNRFHRVFLPSHSLDTVSPSDTLLCFELLSSELAKERVVVLEVQQRPQVPSVPISKCAACQRKQQSEDEKLKRCTRCYRVGYCNQLCQKTHWPDHKGLCRPENIGYPFLVSVPASRLTYARLAQLLEGYARYSVSVFQPPFQPGRMALESQSPGCTTLLSTGSLEAGDSERDPIQPPELQLVTPMAEGDTGLPRVWAAPDRGPVPSTSGISSEMLASGPIEVGSLPAGERVSRPEAAVPGYQHPSEAMNAHTPQFFIYKIDSSNREQRLEDKGDTPLELGDDCSLALVWRNNERLQEFVLVASKELECAEDPGSAGEAARAGHFTLDQCLNLFTRPEVLAPEEAWYCPQCKQHREASKQLLLWRLPNVLIVQLKRFSFRSFIWRDKINDLVEFPVRNLDLSKFCIGQKEEQLPSYDLYAVINHYGGMIGGHYTACARLPNDRSSQRSDVGWRLFDDSTVTTVDESQVVTRYAYVLFYRRRNSPVERPPRAGHSEHHPDLGPAAEAAASQASRIWQELEAEEEPVPEGSGPLGPWGPQDWVGPLPRGPTTPDEGCLRYFVLGTVAALVALVLNVFYPLVSQSRWR [USP19]”: the thermal stability score is -0.212 in the data set on HeLa Kyoto [1] (setting [5]) and -0.109 in the data set with HeLa Kyoto [1] (cell cycle stage: mitosis). Also, the melting temperature in the data set on HeLa Kyoto [2] (cell cycle stage: G1/S) is 51.1 °C; in the data set on HeLa Kyoto [2] (cell cycle stage: mitosis) it was 51 °C. Further, in the data set with HeLa Kyoto [3], the “solubility in G1/S (log2)” value was -0.0565. Also, in the data set on HeLa Kyoto [4], the “solubility change mitosis (log2)” value was -0.0948.
Take “MSGGLLKALRSDSYVELSQYRDQHFRGDNEEQEKLLKKSCTLYVGNLSFYTTEEQIYELFSKSGDIKKIIMGLDKMKKTACGFCFVEYYSRADAENAMRYINGTRLDDRIIRTDWDAGFKEGRQYGRGRSGGQVRDEYRQDYDAGRGGYGKLAQNQ [NCBP2]”: the thermal stability score in the data set with HeLa Kyoto [1] (setting [5]) was -0.145; in the data set with HeLa Kyoto [1] (cell cycle stage: mitosis), -1.78. Also, the melting temperature in the data set on HeLa Kyoto [2] (cell cycle stage: G1/S) was found to be 51.4 °C; in the data set with HeLa Kyoto [2] (cell cycle stage: mitosis), 51.8 °C. In addition, in the data set with HeLa Kyoto [3], the “solubility in G1/S (log2)” value is -0.118. Besides, in the data set on HeLa Kyoto [4], the “solubility change mitosis (log2)” value was determined as 0.26.
For the sequence “MSGNGNAAATAEENSPKMRVIRVGTRKSQLARIQTDSVVATLKASYPGLQFEIIAMSTTGDKILDTALSKIGEKSLFTKELEHALEKNEVDLVVHSLKDLPTVLPPGFTIGAICKRENPHDAVVFHPKFVGKTLETLPEKSVVGTSSLRRAAQLQRKFPHLEFRSIRGNLNTRLRKLDEQQEFSAIILATAGLQRMGWHNRVGQILHPEECMYAVGQGALGVEVRAKDQDILDLVGVLHDPETLLRCIAERAFLRHLEGGCSVPVAVHTAMKDGQLYLTGGVWSLDGSDSIQETMQATIHVPAQHEDGPEDDPQLVGITARNIPRGPQLAAQNLGISLANLLLSKGAKNILDVARQLNDAH [HMBS]”, the thermal stability score was -1.68 in the data set on HeLa Kyoto [1] (setting [5]) and -1.79 with HeLa Kyoto [1] (cell cycle stage: mitosis). Moreover, the melting temperature in the data set on HeLa Kyoto [2] (cell cycle stage: G1/S) was 57.6 °C; with HeLa Kyoto [2] (cell cycle stage: mitosis), 57.3 °C. In addition, the “solubility in G1/S (log2)” value in the data set with HeLa Kyoto [3] came to 0.328. Besides, the “solubility change mitosis (log2)” value in the data set with HeLa Kyoto [4] is -0.0671.
Take “MSGTNLDGNDEFDEQLRMQELYGDGKDGDTQTDAGGEPDSLGQQPTDTPYEWDLDKKAWFPKITEDFIATYQANYGFSNDGASSSTANVEDVHARTAEEPPQEKAPEPTDARKKGEKRKAESGWFHVEEDRNTNVYVSGLPPDITVDEFIQLMSKFGIIMRDPQTEEFKVKLYKDNQGNLKGDGLCCYLKRESVELALKLLDEDEIRGYKLHVEVAKFQLKGEYDASKKKKKCKDYKKKLSMQQKQLDWRPERRAGPSRMRHERVVIIKNMFHPMDFEDDPLVLNEIREDLRVECSKFGQIRKLLLFDRHPDGVASVSFRDPEEADYCIQTLDGRWFGGRQITAQAWDGTTDYQVEETSREREERLRGWEAFLNAPEANRGLRRSDSVSASERAGPSRARHFSEHPSTSKMNAQETATGMAFEEPIDEKKFEKTEDGGEFEEGASENNAKESSPEKEAEEGCPEKESEEGCPKRGFEGSCSQKESEEGNPVRGSEEDSPKKESKKKTLKNDCEENGLAKESEDDLNKESEEEVGPTKESEEDDSEKESDEDCSEKQSEDGSEREFEENGLEKDLDEEGSEKELHENVLDKELEENDSENSEFEDDGSEKVLDEEGSEREFDEDSDEKEEEEDTYEKVFDDESDEKEDEEYADEKGLEAADKKAEEGDADEKLFEESDDKEDEDADGKEVEDADEKLFEDDDSNEKLFDEEEDSSEKLFDDSDERGTLGGFGSVEEGPLSTGSSFILSSDDDDDDI [HTATSF1]”: the thermal stability score in the data set with HeLa Kyoto [1] (setting [5]) was 5.21; in the data set with HeLa Kyoto [1] (cell cycle stage: mitosis), 9.34. Also, the melting temperature with HeLa Kyoto [2] (cell cycle stage: G1/S) worked out at 47.4 °C; in the data set with HeLa Kyoto [2] (cell cycle stage: mitosis), 49.4 °C. The “solubility in G1/S (log2)” value in the data set on HeLa Kyoto [3] was -0.256. In addition, in the data set on HeLa Kyoto [4], the “solubility change mitosis (log2)” value is -0.0715.
